Results: article doi:10.1101/2020.10.06.327627 (bioRxiv, 2020)

Biological target: T1, human TRAP1 (mitochondrial Hsp90) (human, UniProt Q12931 60-704)
T1 sequence (looked up): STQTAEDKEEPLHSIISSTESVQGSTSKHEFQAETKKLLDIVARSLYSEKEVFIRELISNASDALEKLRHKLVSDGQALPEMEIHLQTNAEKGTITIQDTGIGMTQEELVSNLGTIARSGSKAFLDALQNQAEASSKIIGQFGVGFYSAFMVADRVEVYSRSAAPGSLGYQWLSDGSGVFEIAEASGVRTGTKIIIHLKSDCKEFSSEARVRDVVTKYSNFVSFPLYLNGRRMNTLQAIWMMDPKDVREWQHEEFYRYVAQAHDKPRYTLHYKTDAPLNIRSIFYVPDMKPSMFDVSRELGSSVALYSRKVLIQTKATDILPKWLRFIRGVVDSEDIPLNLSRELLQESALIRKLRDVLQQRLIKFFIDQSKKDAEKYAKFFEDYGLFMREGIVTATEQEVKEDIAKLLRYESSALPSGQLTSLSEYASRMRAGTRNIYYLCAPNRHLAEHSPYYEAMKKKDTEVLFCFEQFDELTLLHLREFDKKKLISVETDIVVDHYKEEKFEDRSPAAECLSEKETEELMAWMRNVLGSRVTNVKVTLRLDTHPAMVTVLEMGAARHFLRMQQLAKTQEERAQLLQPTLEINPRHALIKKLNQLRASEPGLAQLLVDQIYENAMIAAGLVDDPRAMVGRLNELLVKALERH
Experiment: cell-based or functional assay

acceleration of TRAP1 ATPase activity, EC50: 6.6 µM | acceleration of TRAP1 dimer closure, inter-protomer FRET assay, EC50: 3.6 µM
B1: SdhB160 (truncated human succinate dehydrogenase B subunit, truncated at K160) (domain or fragment, UniProt P21912 29-160, looked up)
chain: AQTAAATAPRIKKFAIYRWDPDKAGDKPHMQTYEVDLNKCGPMVLDALIKIKNEVDSTLTFRRSCREGICGSCAMNINGGNTLACTRRIDTNLNKVSKIYPLPHMYVIKDLVPDLSNFYAQYKSIEPYLKKK
